For data set [1] the following is noted: literature values; cited from earlier work.
Data set [2] in a line: Solubility of drug and drug-peptide conjugate in water (supersaturated solution, HPLC standard curve). The data set is classed as physicochemical. As for the experimental part:
The peak areas of the series standard solutions were detected via HPLC (mobile phase: 0.065% TFA water + 0.05% TFA; chromatographic column: YMC-TriartC18; wavelength: 220 nm), so as to construct a concentration-peak area standard curve, as shown in FIG. 13. In FIG. 13, the horizontal axis represents the concentration, and the longitudinal axis represents the peak area.
The peak area of the sample was detected via HPLC, and the solubility value of the sample in water was calculated by the concentration-peak area standard curve. Table 5 Solubility Value of Sample in Water

The target in data set [3] is c-Met positive cell MKN-45 (Homo sapiens, UniProt P08581). The data set is described as follows: Flow cytometry detection of binding of FITC-labelled peptide to c-Met positive cell MKN-45. The data set is classed as cell-based. To be noted: for binding affinity to c-Met positive cell MKN45 compared with P1-AI: alanine scanning, FITC-labelled peptides 10 µM to 0.625 µM, FIG. 12; for affinity to c-Met positive cell MKN45 relative to CM7-1: comparison of EC50 with CM7-1, FITC-labelled peptides tested; for binding to c-Met positive cell MKN45, dose dependence: different peptide concentrations, flow cytometry. The protocol: MKN 45 cells cultured in a 1640 culture solution (Nanjing Senbeijia Biotechnology Co., Ltd.) were collected, and washed twice with pre-cooled PBS. 1 mL of 1% BSA solution was added into the washed cells, and then the above mixed system was placed on a rotary mixer (Lichen Technology Co., Ltd.) and incubated for 30 min at 4°C. Different concentrations of FITC-P1-AI, FITC-CM7-1, FITC-CM7-1.1, FITC-CM7-1.2, FITC-CM7-1.3, FITC-CM7-1.4, FITC-CM7-1.5 and FITC-CM7-1.6 peptide solutions were respectively added in the dark to obtain multiple groups, and then the mixtures were placed on the rotary mixer and incubated for 1 h at 4°C in the dark. After the incubation was completed, the mixed system of the cells was centrifuged for 5 min at 800 rpm, and then supernatant was discarded. The cells were washed twice with pre-cooled PBS, and the concentration of the cells was adjusted to 1×10^6 cells/mL using PBS. 3 parallel replicate wells were set up for cells in each group, with 0.5 mL prepared per sample; and a flow cytometer was used to detect the binding of the peptide to c-Met positive cell MKN-45, EC50 data and a binding curve were generated. […] Table 2 Binding affinity of peptide to MKN-45
MKN-45 cells cultured in a 1640 culture solution were collected, and washed twice with pre-cooled PBS 1 mL of 1% BSA solution was added into the washed cells, and then the above mixed system was placed on a rotary mixer and incubated for 30-60 min at 4°C. 10 µM of FITC-P1-AI peptide solution and FITC-CM7-1 were respectively added in the dark to form two groups, and the above mixed systems were placed on the rotary mixer and incubated for 1 h at 4°C in the dark. After the incubation was completed, the mixed system of the cells was centrifuged for 5 min at 800 rpm, and then supernatant was discarded. The cells were washed 1-2 times with pre-cooled PBS, and then the concentration of the washed cells was adjusted to 1×10^6 cells/mL by using PBS. 3 parallel replicate wells were set up for cells in each group, with 0.5 mL prepared per sample; and a flow cytometer was used to detect the binding of the peptide to c-Met positive cells.
The MKN-45 cells cultured in a 1640 culture solution were collected, and washed twice with pre-cooled PBS. […] After the incubation was completed, the mixed system of the cells was centrifuged for 5 min at 800 rpm, and then supernatant was discarded. The cells were washed 1-2 times with pre-cooled PBS, and then the concentration of the washed cells was adjusted to 1×10^6 cells/mL by using PBS. 3 parallel replicate wells were set up for cells in each group, with 0.5 mL prepared per sample; and a flow cytometer was used to detect the binding of the peptide to the c-Met positive cell MKN-45. […] Table 4 Sequences of Peptides

The test system of data set [4] is MKN-45 subcutaneous xenograft tumor. The data set is described as follows: Living imaging of tissue distribution in MKN-45 subcutaneous xenograft tumor mice. The format is in vivo, nude mice. To be noted: 5 mg/kg via tail vein, tumor about 400 mm^3, FIG. 11. As for the experimental part:
In MKN-45 subcutaneous xenograft tumor mice (nude mice were purchased from Changzhou Kavens Laboratory Animal Co., Ltd), 5X10^6 MKN45 cells were subcutaneously implanted into nude mice; and when the volume of the tumor was about 400 mm^3, 5 mg/kg Cy5-P1-AI was injected via a tail vein, and its tissue distribution was analyzed using a living imaging instrument. […] In the figure, a circle area is a tumor site.

The nature of data set [5]: Solubility detection of peptide in ultrapure water (visual). The data set is classed as physicochemical. The protocol: 13.4 mg of CM7-1 and 15 mg of P1-AI were respectively weighed and dissolved using ultrapure (UP) water (prepared using Youpu Pure Water/Ultrapure Water Manufacturing System (UPR-II-10T)).
Data set [6] deals with human hepatic stellate cell LX-2. The data set is described as follows: Specificity: flow cytometry binding of peptide to LX-2 cells that barely express c-Met. The data set is classed as cell-based. The note with it: concentration of up to 10 µM, cells barely expressing c-Met, FIG. 8. As for the experimental part: Human hepatic stellate cells LX-2 cultured in a 1640 culture solution were collected, and washed twice with pre-cooled PBS. 1 mL of 1% BSA solution was added into the washed cells, and then the above mixed system were placed on a rotary mixer and incubated for 30 min at 4°C. 10 µM of FITC-P1-AI peptide solution and FITC-CM7-1 were respectively added in the dark to form two groups, and the above mixed systems were placed on the rotary mixer and incubated for 1 h at 4°C in the dark. After the incubation was completed, the mixed system of the cells was centrifuged for 5 min at 800 rpm, and then supernatant was discarded. The cells were washed twice with pre-cooled PBS, and the concentration of the cells was adjusted to 1×10^6 cells/mL using PBS. 3 parallel replicate wells were set up at concentrations of 1 µM, 5 µM and 10 µM for cells in each group, with 0.5 mL prepared per sample; and a flow cytometer was used to detect the binding of the peptide to LX-2 cells.
A general note: Flow cytometry measures light scatter and fluorescence of single cells or particles in a stream.

Data set [7] addresses c-Met protein (UniProt P08581 25-932, limits assumed). Description: microscale thermophoresis (MST), FITC-peptide with titrated c-Met protein. Background: Microscale thermophoresis detects binding through changes in fluorescence in a small temperature gradient.
Data set [8] addresses T1, c-Met on c-Met positive human gastric cancer cell MKN-45 (human, UniProt P08581 25-1390).
T1 construct: whole, on cells; also called hepatocyte growth factor receptor; HGFR
Description: flow cytometry, FITC-peptide (0.625-10 µM) on MKN-45 cells.

For data set [9], the target named is T1, c-Met on c-Met positive human gastric …. The data set is described as follows: flow cytometry, FITC-peptide on c-Met positive MKN-45 cells.

Converted amounts (≈) assume the structure as drawn. Where a SMILES comes first, the peptide text is derived from it. Where no end group is shown, it is not given here. The star is where a group is joined. Paclitaxel(2'-O-succinyl) = CC(=O)O[C@H]1C(=O)[C@@]2(C)[C@H]([C@H](OC(=O)c3ccccc3)[C@]3(O)C[C@H](OC(=O)[C@H](OC(=O)CCC(=O)*)[C@@H](NC(=O)c4ccccc4)c4ccccc4)C(C)=C1C3(C)C)[C@]1(OC(C)=O)CO[C@@H]1C[C@@H]2O; FITC = O=C1OC2(c3ccc(O)cc3Oc3cc(O)ccc32)c2ccc(NC(=S)*)cc21; Acp = not defined here

c-Met protein, sequence (P08581 25-932 limits assumed): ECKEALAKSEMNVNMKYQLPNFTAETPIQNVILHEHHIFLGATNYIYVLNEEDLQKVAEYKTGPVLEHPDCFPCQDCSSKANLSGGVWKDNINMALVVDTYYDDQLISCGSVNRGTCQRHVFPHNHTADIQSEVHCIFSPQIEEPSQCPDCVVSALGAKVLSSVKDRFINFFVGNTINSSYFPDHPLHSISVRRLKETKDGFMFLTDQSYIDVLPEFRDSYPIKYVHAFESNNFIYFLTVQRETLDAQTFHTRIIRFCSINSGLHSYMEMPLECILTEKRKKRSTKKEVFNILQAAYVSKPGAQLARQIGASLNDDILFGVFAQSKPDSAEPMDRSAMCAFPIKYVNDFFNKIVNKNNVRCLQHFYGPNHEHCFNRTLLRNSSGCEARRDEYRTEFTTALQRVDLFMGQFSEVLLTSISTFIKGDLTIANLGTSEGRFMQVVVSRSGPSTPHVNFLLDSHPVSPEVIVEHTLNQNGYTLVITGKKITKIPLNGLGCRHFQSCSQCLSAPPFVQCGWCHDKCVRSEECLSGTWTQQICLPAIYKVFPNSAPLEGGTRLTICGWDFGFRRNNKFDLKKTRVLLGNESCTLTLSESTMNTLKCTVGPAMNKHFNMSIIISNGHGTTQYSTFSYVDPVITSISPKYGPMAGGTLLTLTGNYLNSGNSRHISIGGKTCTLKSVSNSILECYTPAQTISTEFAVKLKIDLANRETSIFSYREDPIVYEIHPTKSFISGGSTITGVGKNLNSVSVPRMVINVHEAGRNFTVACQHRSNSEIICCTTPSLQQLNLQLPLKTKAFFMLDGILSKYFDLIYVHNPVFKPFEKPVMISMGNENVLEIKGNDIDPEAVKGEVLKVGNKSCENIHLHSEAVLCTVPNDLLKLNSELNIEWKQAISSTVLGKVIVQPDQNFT
T1 sequence (P08581 25-1390): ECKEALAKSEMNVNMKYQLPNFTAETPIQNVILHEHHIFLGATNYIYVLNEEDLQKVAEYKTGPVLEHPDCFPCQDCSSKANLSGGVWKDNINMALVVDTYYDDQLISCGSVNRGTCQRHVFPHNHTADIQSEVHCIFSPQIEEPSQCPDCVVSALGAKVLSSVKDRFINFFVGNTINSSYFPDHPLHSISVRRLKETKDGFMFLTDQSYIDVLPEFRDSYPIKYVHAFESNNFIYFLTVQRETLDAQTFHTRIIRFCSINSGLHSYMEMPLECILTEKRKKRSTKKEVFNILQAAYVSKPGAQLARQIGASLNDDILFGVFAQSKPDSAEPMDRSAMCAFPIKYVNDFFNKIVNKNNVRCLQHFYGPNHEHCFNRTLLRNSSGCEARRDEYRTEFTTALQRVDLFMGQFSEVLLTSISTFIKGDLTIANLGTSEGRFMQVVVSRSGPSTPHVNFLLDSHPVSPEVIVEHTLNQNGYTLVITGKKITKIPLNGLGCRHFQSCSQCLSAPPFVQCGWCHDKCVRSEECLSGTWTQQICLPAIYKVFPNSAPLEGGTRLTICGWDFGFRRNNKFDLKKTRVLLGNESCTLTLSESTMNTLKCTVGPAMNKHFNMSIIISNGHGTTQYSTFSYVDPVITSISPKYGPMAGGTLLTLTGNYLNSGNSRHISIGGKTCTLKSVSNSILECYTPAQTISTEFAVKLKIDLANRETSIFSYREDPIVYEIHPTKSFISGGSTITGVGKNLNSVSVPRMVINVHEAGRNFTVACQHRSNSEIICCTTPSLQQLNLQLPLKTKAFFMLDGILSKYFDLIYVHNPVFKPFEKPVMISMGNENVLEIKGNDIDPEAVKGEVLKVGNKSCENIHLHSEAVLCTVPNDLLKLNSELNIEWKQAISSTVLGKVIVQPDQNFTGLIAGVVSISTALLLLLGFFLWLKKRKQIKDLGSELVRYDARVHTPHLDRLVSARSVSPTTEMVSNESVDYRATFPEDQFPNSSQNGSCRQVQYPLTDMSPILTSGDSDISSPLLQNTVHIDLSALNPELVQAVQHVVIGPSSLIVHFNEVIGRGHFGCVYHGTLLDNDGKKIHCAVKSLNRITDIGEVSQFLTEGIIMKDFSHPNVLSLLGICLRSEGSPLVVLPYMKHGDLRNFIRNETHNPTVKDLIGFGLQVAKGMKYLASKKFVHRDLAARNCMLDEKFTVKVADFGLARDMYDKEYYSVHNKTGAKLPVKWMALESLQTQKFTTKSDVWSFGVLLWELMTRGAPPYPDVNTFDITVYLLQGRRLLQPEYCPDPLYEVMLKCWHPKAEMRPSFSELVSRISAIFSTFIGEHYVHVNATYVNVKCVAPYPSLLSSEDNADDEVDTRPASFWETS
c-Met positive cell MKN-45, sequence (P08581 25-1390): as above

`CCc1c2c(nc3ccc(OCC(=O)N4CCCCC4)cc13)-c1cc3c(c(=O)n1C2)COC(=O)[C@]3(O)CC` [7-ethyl-10-[2-oxo-2-(piperidinyl)ethoxy]camptothecin]: the solubility in water result in [1] was “about 6.22 µg/mL”.
In general, solubility refers to the concentration that dissolves in the medium under given conditions. Low values mean a poorly soluble substance, high ones a readily soluble substance. With `CC[C@@]1(O)C(=O)OCc2c1cc1n(c2=O)Cc2cc3ccccc3nc2-1` [CPT, camptothecin], in data set [2] (thermodynamic from solid), the concentration in solution (solubility at 15 min) came to 0.084 µg/mL (≈ 0.241 µM).
Regarding `CC(=O)O[C@@]12CO[C@@H]1C[C@H](O)[C@@]1(C)C(=O)[C@H](O)C3=C(C)[C@@H](OC(=O)[C@H](OC(=O)CCC(=O)N[C@@H](CCCNC(=N)N)C(=O)N[C@@H](CO)C(=O)N4CCC[C@H]4C(=O)N[C@@H](Cc4ccc(O)cc4)C(=O)N[C@@H](C)C(=O)N[C@@H](CC(N)=O)C(=O)N[C@@H](CO)C(=O)O)[C@@H](NC(=O)OC(C)(C)C)c4ccccc4)C[C@@](O)([C@@H](OC(=O)c4ccccc4)[C@H]21)C3(C)C` [DOC-P1-AI], the “Solubility increasing fold of drug-peptide conjugate compared with drug” value in data set [2] is 1.62×10^5 fold.
Still for that read-out and setting: next, `CC(=O)O[C@H]1C(=O)[C@@]2(C)[C@H]([C@H](OC(=O)c3ccccc3)[C@]3(O)C[C@H](OC(=O)[C@H](OC(=O)CCC(=O)N[C@@H](CCCNC(=N)N)C(=O)N[C@@H](CO)C(=O)N4CCC[C@H]4C(=O)N[C@@H](Cc4ccc(O)cc4)C(=O)N[C@@H](C)C(=O)N[C@@H](CC(N)=O)C(=O)N[C@@H](CO)C(=O)O)[C@@H](NC(=O)c4ccccc4)c4ccccc4)C(C)=C1C3(C)C)[C@]1(OC(C)=O)CO[C@@H]1C[C@@H]2O` [PTX-P1-AI] ({Paclitaxel(2'-O-succinyl)}-RSPYANS-OH; N-terminus assumed): 46.33 fold.
ASPYANS [P1-AI-1]: in [3], the “binding affinity to c-Met positive cell MKN45 compared with P1-AI” value (“binding affinity … compared with P1-AI” for short) is “reduced”.
With Cy5-RSPYANS [Cy5-P1-AI], the “tissue distribution by living imaging” value in data set [4] is “enriched in cancer sites highly expressing c-Met”.
For DAIIANN [CM7-1.2], in data set [3], the “affinity to c-Met positive cell MKN45 relative to CM7-1” value is on record as “significantly increased affinity” and the “binding to c-Met positive cell MKN45, dose dependence” value is on record as “dose-dependent”.
For DQAIANN [CM7-1.3], in that order: “significantly increased affinity” and “dose-dependent”.
On to DQIAANN [CM7-1.4], for which, in data set [3], the “affinity to c-Met positive cell MKN45 relative to CM7-1” value is recorded as “increased affinity”.
As for DQIIANA [CM7-1.6], the “affinity to c-Met positive cell MKN45 relative to CM7-1” value in [3] is listed as “increased affinity”.
For the molecule “DQIIANN [CM7-1, DQIIANN, reference compound]”, in data set [5] (concentration 6 mM), the state in water result is “completely cloudy state”.
With “FITC-RSPYANS (not fully specified; FITC label) [FITC-P1-AI]”, the “binding to LX-2 cells” value in [6] is recorded as “barely binds”.
Take RAPYANS [P1-AI-2]: the “binding affinity … compared with P1-AI” value in data set [3] is on record as “reduced”.
For RSAYANS [P1-AI-3], the “binding affinity … compared with P1-AI” value in data set [3] is reported as “reduced”.
Consider RSPAANS [P1-AI-4], for which the “binding affinity … compared with P1-AI” value in [3] is on record as “increased binding affinity”. The “binding affinity to c-Met compared with CM7-1” value in [3] (conclusion of Example 9) is listed as “superior”.
Consider RSPYANS [P1-AI, RSPYANS], for which the state in water entry in data set [5] (concentration 19 mM) is “clear solution”.

B1: FITC-P1-AI (FITC-RSPYANS) (peptide)
peptide: {FITC-Acp}-RSPYANS
modifications: reading uncertain
notes: Synthetic 7-mer made by solid-phase synthesis; Molecular weight 1296.36
A word on the Kd: it is the free concentration of one partner at which half of the binding sites on the other are occupied at equilibrium, for simple one-to-one binding. Turning to B1, in data set [7], the Kd was determined as 41.1 nM and the “fold increase of affinity against CM7-1” value turned out to be 30.9 fold.
With {FITC}-RSPAANS (Alanine variant of P1-AI at position 4) [FITC-P1-AI-4 (FITC-RSPAANS)], the binding result in data set [8] was “binds”.
As for {FITC}-ASPYANS (Alanine variant of P1-AI at position 1) [FITC-P1-AI-1 (FITC-ASPYANS)], the binding result in data set [8] is “binds”.
In the case of {FITC}-RSAYANS (Alanine variant of P1-AI at position 3) [FITC-P1-AI-3 (FITC-RSAYANS)], the binding result in data set [8] is on record as “binds”.

B2: FITC-P1-AI-6 (FITC-RSPYAAS) (peptide)
peptide: {FITC}-RSPYAAS
notes: Alanine variant of P1-AI at position 6; also called P1-Al-6
As for B2, the binding result in data set [8] is “binds”.
Turning to {FITC}-RAPYANS (Alanine variant of P1-AI at position 2) [FITC-P1-AI-2 (FITC-RAPYANS)], the binding result in [8] is “binds”.

B3: FITC-CM7-1 (FITC-DQIIANN) (peptide)
peptide: {FITC}-DQIIANN
notes: tested as the FITC-labelled form; Molecular weight 1289.36
By EC50 is commonly meant the midpoint of the concentration-response curve. B3 yielded a Kd in data set [7] of 1270 nM. The molecule also returned an EC50 in [9] of 9500 nM.
The molecule {FITC}-AQIIANN (Alanine variant of CM7-1 at position 1) [FITC-CM7-1.1 (FITC-AQIIANN)] returned an EC50 in data set [9] of 2070 nM.
Molecule {FITC}-DQIIANA (Alanine variant of CM7-1 at position 7) [FITC-CM7-1.6 (FITC-DQIIANA)] returned an EC50 in data set [9] of 5050 nM. This EC50 lies about 2.4-fold higher than the previous one.
Still for that read-out and setting: next, {FITC}-DQAIANN (Alanine variant of CM7-1 at position 3) [FITC-CM7-1.3 (FITC-DQAIANN)]: 45.6 nM; {FITC}-DQIIAAN (Alanine variant of CM7-1 at position 6) [FITC-CM7-1.5 (FITC-DQIIAAN)]: 15200 nM; {FITC}-DAIIANN (Alanine variant of CM7-1 at position 2) [FITC-CM7-1.2 (FITC-DAIIANN)]: 1880 nM.
Still for that read-out and setting: the figure for {FITC}-DQIAANN (Alanine variant of CM7-1 at position 4) [FITC-CM7-1.4 (FITC-DQIAANN)] is 5370 nM.
